Experiment [1] concerns the target T1, recombinant C-terminally truncated RSV (A2 strain) F protein (RSV (A2 strain), UniProt P03420 26-524).
T1 construct: extracellular domain; also called truncated F protein; extracellular domain of the F protein from RSV A2
The experiment is described as follows: SPR (BIAcore), IgG over immobilised F.

Experiment [2] deals with T2, F protein of RSV (Long strain) (RSV (Long strain), UniProt P12568 26-574). The experiment is described as follows: cell-based or functional assay.
Experiment [3] has as its target T2, F protein of RSV (Long strain). The experiment is described as follows: cell-based or functional assay. The source holds these as a separate data set.
Experiment [4] shares this target. Briefly: cell-based or functional assay. This is another data set of the same source.
Another experiment deals with Bac-F (respiratory syncytial virus). The experiment is described as follows: SPR (BIAcore), mAb vs Bac-F (1:1).
In experiment [5] the target is T3, murine FcRn (mouse, UniProt P01887 21-119).
T3 construct: also called mouse FcRn; muFcRn
T3 sequence: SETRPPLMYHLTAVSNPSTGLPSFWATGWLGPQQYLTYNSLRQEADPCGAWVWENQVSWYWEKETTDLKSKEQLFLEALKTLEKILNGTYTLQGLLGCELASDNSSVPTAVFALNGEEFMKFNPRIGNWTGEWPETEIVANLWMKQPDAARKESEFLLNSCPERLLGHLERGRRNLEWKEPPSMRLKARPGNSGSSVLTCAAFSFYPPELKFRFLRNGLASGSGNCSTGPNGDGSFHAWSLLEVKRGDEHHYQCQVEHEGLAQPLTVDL
T3 sequence (b2m): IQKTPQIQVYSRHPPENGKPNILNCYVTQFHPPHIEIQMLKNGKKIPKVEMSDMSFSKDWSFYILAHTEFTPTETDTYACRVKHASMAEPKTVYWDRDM
The experiment is described as follows: SPR (BIAcore 3000), FcRn over immobilised IgG1, pH 6.0, Scatchard.
Description: (§1) IgG1 variants was monitored by surface plasmon resonance detection using a BIAcore 3000 instrument (Pharmacia Biosensor, Uppsala, Sweden). […] The protein concentrations ranged from 3-5 μg/ml in 10 mM sodium acetate, pH 5.0. The activation period was set for 7 minutes at a flow rate of 10 μl/min and the immobilization period was set to between 10 and 20 minutes at a flow rate of 10 μl/min. […] Human and murine FcRn were buffer exchanged against 50 mM PBS buffer pH 6.0 containing 0.05% Tween 20. Dilutions were made in the same buffer. All binding experiments were performed at 25° C. with concentrations ranging from 120 to 1 μg/ml at a flow rate of 5 to 10 μl/min; data were collected for 25 to 50 minutes and three 1-minute pulses of PBS buffer pH 7.2 were used to regenerate the surfaces. FcRn was also flowed over an uncoated cell and the sensorgrams from these blank runs subtracted from those obtained with IgG1-coupled chips. Runs were analyzed using the software BIAevaluation 3.1 (Pharmacia). Association constants (KAs) were determined from Scatchard analysis by measuring the concentration of free reactants and complex at equilibrium after correction for nonspecific binding.

For experiment [6], the target named is T4, human FcRn (human).
T4 construct: also called recombinant human FcRn
T4 sequence (chain, as listed by the source limits assumed, chain 1 of 2): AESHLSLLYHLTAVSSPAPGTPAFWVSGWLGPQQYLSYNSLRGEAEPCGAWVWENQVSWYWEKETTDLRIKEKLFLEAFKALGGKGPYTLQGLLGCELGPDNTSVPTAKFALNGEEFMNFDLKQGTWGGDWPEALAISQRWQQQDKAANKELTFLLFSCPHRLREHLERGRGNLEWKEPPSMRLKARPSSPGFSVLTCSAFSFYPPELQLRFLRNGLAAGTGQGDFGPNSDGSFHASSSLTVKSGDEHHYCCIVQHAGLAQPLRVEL
T4 sequence (P61769 21-119 limits assumed, chain 2 of 2): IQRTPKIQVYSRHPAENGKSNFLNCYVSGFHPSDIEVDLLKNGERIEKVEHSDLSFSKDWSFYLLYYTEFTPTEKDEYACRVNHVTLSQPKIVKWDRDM
The experiment is described as above.
Description: as §1

Experiment [7] deals with T2, F protein of RSV (Long strain). The experiment is described as follows: cell-based or functional assay. The source holds these as a separate data set.
In experiment [8] the target is T1, recombinant C-terminally truncated RSV …. Briefly: SPR (BIAcore 3000), F immobilised at low density, 1:1 Langmuir fit.
Description: Purified F protein was covalently coupled to an N-hydroxysuccinimide-N-ethyl-N′-[3-diethylaminopropyl]-carbodiimide (EDC/NHS) activated CM5 sensor chip at a low protein density according to the manufacturer's protocol; unreacted active ester groups were blocked with 1 M ethanolamine. For reference purposes, a blank surface, containing no antigen, was prepared under identical immobilization conditions.
For kinetic measurements, a serial 2-fold dilution series of each mAb from 100 nm-0.2 nm, made in instrument buffer (HBS/Tween-20, BIAcore, Inc.), was injected over the F-protein and reference cell surfaces, which are connected in series. In each analysis, following the dissociation phase, the remaining bound antibody was removed from the sensor chip by passing a brief pulse of 100 mM HCl over the surface. Once an entire data set was collected, the resulting binding curves were globally fitted to a 1:1 Langmuir binding model using BIAevaluation software (BIAcore, Inc., Piscataway, N.J.). This algorithm calculates both the association rate (kₒₙ) and the dissociation rate (koff), from which the apparent equilibrium binding constant, Kd, for each antibody was deduced as the ratio of the two rate constants, koff/kₒₙ.
Experiment [9] has as its target T2, F protein of RSV (Long strain). Briefly: cell-based or functional assay. This is another data set of the same source.
Experiment [10] addresses T3, murine FcRn. Briefly: SPR (BIAcore), murine FcRn over immobilised IgG1, Scatchard.
Description: Runs were analyzed using the software BIAevaluation 3.1 (Pharmacia). Association constants (KAs) were determined from Scatchard analysis by measuring the concentration of free reactants and complex at equilibrium after correction for nonspecific binding. […] The concentration of free analyte (human or murine FcRn) is equal to the bulk analyte concentration since analyte is constantly replenished during sample injection. The concentration of free ligand on the surface of the sensor chip can be derived from the concentration of the complex and from the total binding capacity of the surface as KA=Req/C(Rₘₐₓ−Req) where C is the free analyte concentration, Req is the steady-state response, and Rₘₐₓ is the total surface binding capacity. Rearranging, the equation reads: Req/C=KA Rₘₐₓ−KA Req.
To estimate apparent KAs, concentrations of FcRn ranging from 120 to 1 μg/ml were used. In all cases, equilibrium (or near-equilibrium) binding levels were reached within 50 minutes. To estimate the increase in RU resulting from the non specific effect of protein on the bulk refractive index, binding of FcRn to an uncoated cell was measured and the sensorgrams from these blank runs subtracted from those obtained with IgG1-coupled chips. The plots were all linear, and apparent KAs were calculated from the relevant slopes. […]
The target in experiment [11] is T5, Cynomolgus Monkey FcRn (Cynomolgus Monkey, UniProt Q8SPV9 24-290; Q8SPW0 21-119).
T5 construct: also called Cynomolgus FcRn
T5 sequence (Q8SPV9 24-290 limits assumed, chain 1 of 2): as the sequence (chain, as listed by the source limits assumed, chain 1 of 2) above, with N39D, E44Q, G99S, S189G, S190N, L217M counted along it
T5 sequence (Q8SPW0 21-119 limits assumed, chain 2 of 2): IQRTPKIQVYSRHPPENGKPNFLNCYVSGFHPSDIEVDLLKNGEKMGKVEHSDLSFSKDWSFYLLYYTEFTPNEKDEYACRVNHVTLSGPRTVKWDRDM
The experiment is described as follows: SPR (BIAcore 3000), FcRn over immobilised IgG.
Description: (§2) Human and Cynomolgus Monkey FcRn were buffer-exchanged against 50 mM Phosphate Buffered Saline (PBS) pH 6.0 or 7.4 containing 0.05% Tween 20. Dilutions were made in the same buffers. […] FcRn was also flowed over an uncoated cell and the sensorgrams from these blank runs subtracted from those obtained with IgG-coupled chips. Runs were analyzed using the software BIAevaluation 3.1 (Pharmacia). Dissociation constants (Kds) were determined by fitting the binding isotherms to a one-site binding model using GraphPad Prism (GraphPad Software, Inc., CA). Errors were estimated as the mean standard deviation for at least 2 independent determinations.

In experiment [12] the target is T4, human FcRn. The experiment is described as follows: SPR (BIAcore 3000), FcRn over immobilised IgG.
Description: as §2
Experiment [13] concerns the target T5, Cynomolgus Monkey FcRn. The experiment is described as follows: SPR (BIAcore 3000), FcRn over immobilised IgG, pH 6.0, one-site fit.
Description: as §2
Experiment [14] deals with T4, human FcRn. The description is as above.
Description: as §2
Experiment [15] addresses T3, murine FcRn. The experiment is described as follows: SPR (BIAcore), FcRn over immobilised IgG1, pH 6.0.
Description: as §1
Experiment [16] concerns the target T4, human FcRn. Briefly: SPR (BIAcore), FcRn over immobilised IgG1, pH 6.0.
Description: as §1

Where a chain is given by its changes, count along the chain named. Numbers in names are those of the source. Where “and” joins values, the source holds several entries; their conditions need not be identical. Equal values may be shown once. Read-outs that look alike come from different tables or passages of the source.

T1 sequence (P03420 137-524): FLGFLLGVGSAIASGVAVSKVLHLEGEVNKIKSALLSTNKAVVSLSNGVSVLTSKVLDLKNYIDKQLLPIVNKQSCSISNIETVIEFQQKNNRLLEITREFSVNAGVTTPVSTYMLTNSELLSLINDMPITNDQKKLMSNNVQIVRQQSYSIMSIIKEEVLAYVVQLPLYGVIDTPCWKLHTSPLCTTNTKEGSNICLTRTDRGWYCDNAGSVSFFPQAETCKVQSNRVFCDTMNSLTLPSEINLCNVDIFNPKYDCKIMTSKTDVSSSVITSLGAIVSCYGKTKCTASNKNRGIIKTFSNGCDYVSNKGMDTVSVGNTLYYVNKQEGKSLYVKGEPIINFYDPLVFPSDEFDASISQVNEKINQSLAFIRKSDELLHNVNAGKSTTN

B1: palivizumab (IgG) (antibody)
heavy: not shown
light: DIQMTQSPSTLSASVGDRVTITCKCQLSVGYMHWYQQKPGKAPKLLIYDTSKLASGVPSRFSGSGSGTEFTLTISSLQPDDFATYYCFQGSGYPFTFGGGTKLEIKRTVAAPSVFIFPPSDEQLKSGTASVVCLLNNFYPREAKVQWKVDNALQSGNSQESVTEQDSKDSTYSLSSTLTLSKADYEKHKVYACEVTHQGLSSPVTKSFNRGEC
notes: also called SYNAGIS
As to B1, the Kd in experiment [1] came out at 3.39 nM; with Bac-F, 3.9 nM; with murine FcRn [5], 269 nM; with human FcRn [6], 2530 nM; in experiment [8], 3.46 nM. Besides, the “IC50” value in experiment [2] was 3.57 nM. The “Microneutralization IC50, IgG” value in [3] was 0.453 µg/ml and 3.02 nM; in experiment [4] it was 0.453 µg/ml and 3.02 nM. Also, the “Microneutralization IC50” value in experiment [7] came to 3.6 nM. Moreover, the “RSV microneutralization, average IC50” value in experiment [7] was 0.315 µg/mL. For the same molecule, the “Mean IC50 (Control)” value in experiment [9] amounted to 0.535 µg/mL. Further, the “Mean IC50 (Curve)” value in experiment [9] worked out at 0.453 µg/mL.

B2: human IgG1 MEDI-493 (palivizumab) M252Y/S254T/T256E (antibody)
heavy: QVTLRESGPALVKPTQTLTLTCTFSGFSLSTSGMSVGWIRQPPGKALEWLADIWWDDKKDYNPSLKSRLTISKDTSKNQVVLKVTNMDPADTATYYCARSMITNWYFDVWGAGTTVTVSSASTKGPSVFPLAPSSKSTSGGTAALGCLVKDYFPEPVTVSWNSGALTSGVHTFPAVLQSSGLYSLSSVVTVPSSSLGTQTYICNVNHKPSNTKVDKRVEPKSCDKTHTCPPCPAPELLGGPSVFLFPPKPKDTLYITREPEVTCVVVDVSHEDPEVKFNWYVDGVEVHNAKTKPREEQYNSTYRVVSVLTVLHQDWLNGKEYKCKVSNKALPAPIEKTISKAKGQPREPQVYTLPPSREEMTKNQVSLTCLVKGFYPSDIAVEWESNGQPENNYKTTPPVLDSDGSFFLYSKLTVDKSRWQQGNVFSCSVMHEALHNHYTQKSLSLSPGK
light: B1 light
notes: also called IgG1/M252Y/S254T/T256E
As to B2, the values for the Kd in the experiment with murine FcRn [5] and with murine FcRn [10] were 27 nM and 24 nM, respectively. In the experiment with murine FcRn [5], the ΔΔG was 1.4 kcal/mol.

B3: MEDI-524-YTE (antibody, human IgG1, kappa)
heavy: B2 heavy with S32A, D60H, S67D, S100D, T103F, W105F, A112Q
light: B1 light with K24S, C25A, Q26S, L27S, S28R, L103V
For the molecule B3, the “fold affinity increase over MEDI-524” value came to 9 fold with Cynomolgus Monkey FcRn [11] and 11 fold in the experiment with human FcRn [12]. In addition, the dissociation constant (Kd) amounted to 134 nM with Cynomolgus Monkey FcRn [13] and 210 nM with human FcRn [14].

B4: human IgG1 MEDI-493 (palivizumab) I253A (antibody)
heavy: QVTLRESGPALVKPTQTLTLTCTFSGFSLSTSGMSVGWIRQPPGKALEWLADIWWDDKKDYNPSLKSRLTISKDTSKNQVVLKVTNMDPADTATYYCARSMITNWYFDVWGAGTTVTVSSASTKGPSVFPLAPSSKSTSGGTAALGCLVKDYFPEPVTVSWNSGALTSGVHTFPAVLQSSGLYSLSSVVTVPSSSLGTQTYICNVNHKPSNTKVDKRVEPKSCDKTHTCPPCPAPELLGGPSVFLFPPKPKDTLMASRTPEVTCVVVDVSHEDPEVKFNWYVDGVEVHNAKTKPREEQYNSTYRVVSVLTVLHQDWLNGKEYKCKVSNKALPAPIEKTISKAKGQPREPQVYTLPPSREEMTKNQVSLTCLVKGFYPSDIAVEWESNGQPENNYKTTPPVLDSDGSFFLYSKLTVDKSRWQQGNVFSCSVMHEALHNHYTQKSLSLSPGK
light: B1 light
notes: also called 1253A
On to B4, for which the binding result in the experiment with murine FcRn [15] and with human FcRn [16] was “no binding” each time.
